Measurements published in PMC10276540.

Biological target: Ultramarine fluorescent protein
Assay: AUC

Substance: Ultramarine fluorescent protein
- stoichiometry N: 2
